The chains are these.
B1: TPR 5TU (parent)
chain: GGAUCUUCUCGAUCUAACAAAAAAGACAAAUCUGCCACAAAGCUUGAGAGCAUCUUCGGAUGCAGAGGCGGCAGCCUUCGGUGGCGCGAUAGCGCCAACGUUCUCAACUAUGACACGCAAAACGCGUGCUCCGUUGAAUGGAGUUUAUCAUG

Variants at the floor of the assay were thinned out.

In the data set the parent is B1. In words: polymerase ribozyme fitness, log enrichment relative to wild type (log ratio); higher = more active; in vitro selection for triplet polymerase activity. An outline of the steps:
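Each subunit of a heterodimeric triplet polymerase ribozyme was represented by a PCR-built, transcribed mutant library that underwent triplicate single-round in vitro selection with frozen incubation at −7 °C. Extended constructs were recovered by gel excision, streptavidin-bead capture and RT-PCR, and Illumina sequencing of input and output libraries kept genotypes with ≥10 input reads and ≥1 read per output. Fitness is the logarithm of genotype enrichment relative to wild-type enrichment, from inverse-variance-weighted replicate averages, with a logarithm base of 2.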
Consider C32G C93U A119U A147U, for which the “polymerase ribozyme fitness (log ratio)” value is at most -4.2.

On to A30U C54A C76A C87G G92A G143C, for which the “polymerase ribozyme fitness (log ratio)” value was at most -4.2.

As to G48U C57G C93U G136A U146G, the “polymerase ribozyme fitness (log ratio)” value is -2.43.

As to A89C C96A A115G, the “polymerase ribozyme fitness (log ratio)” value is -2.74.

Consider A52U C57A C95A A97U, for which the “polymerase ribozyme fitness (log ratio)” value is -2.33.

C8U C87U: the “polymerase ribozyme fitness (log ratio)” value is -2.59.

For the variant A49C G84C, the “polymerase ribozyme fitness (log ratio)” value is at most -4.2.

For U13G C75A C108G G143A, the “polymerase ribozyme fitness (log ratio)” value was at most -4.2.

Consider C32A C75G G92A A150U, for which the “polymerase ribozyme fitness (log ratio)” value was at most -4.2.

For U55A G68A, the “polymerase ribozyme fitness (log ratio)” value was -3.21.

In the case of U135A G136C, the “polymerase ribozyme fitness (log ratio)” value was -4.14.

For C27U G50U U55A C96A A110G G133U, the “polymerase ribozyme fitness (log ratio)” value was -3.94.

For the variant C18U A29C U78G G92A A147C, the “polymerase ribozyme fitness (log ratio)” value is at most -4.2.

A113G A138U: the “polymerase ribozyme fitness (log ratio)” value was -3.79.

Consider G94U A150G, for which the “polymerase ribozyme fitness (log ratio)” value is -2.5.

For A39C A40C A49C, the “polymerase ribozyme fitness (log ratio)” value was at most -4.2.

As for A20G A142C, the “polymerase ribozyme fitness (log ratio)” value is -1.06.

On to U6G G48U G58A C76G U82C C93U A122C A138G A142G, for which the “polymerase ribozyme fitness (log ratio)” value was at most -4.2.

For the variant G59U A98G, the “polymerase ribozyme fitness (log ratio)” value was 0.162.

As for C43U U56A C72A C85A, the “polymerase ribozyme fitness (log ratio)” value was at most -4.2.

A3C A30U C93U A115G: the “polymerase ribozyme fitness (log ratio)” value was at most -4.2.

In the case of U55A G81A C87U U135A U146A, the “polymerase ribozyme fitness (log ratio)” value is -2.11.

For the variant U44A C57A U82C C95A, the “polymerase ribozyme fitness (log ratio)” value was at most -4.2.

Regarding U15G A22C U148G, the “polymerase ribozyme fitness (log ratio)” value is at most -4.2.

As to C32A G50U U55A C85A, the “polymerase ribozyme fitness (log ratio)” value is at most -4.2.

G42A G58C G59C G88C A91G A106C A107G: the “polymerase ribozyme fitness (log ratio)” value was at most -4.2.

As for A30G U77C G84C G86U U102A C118U, the “polymerase ribozyme fitness (log ratio)” value is at most -4.2.

Take U7G A19C A30U G71C G84A C96G C118G: the “polymerase ribozyme fitness (log ratio)” value was at most -4.2.

Consider U13A C27A C54A U56A G65C G92C A97G U101G G140U, for which the “polymerase ribozyme fitness (log ratio)” value was at most -4.2.

As for A20C U31G A40U, the “polymerase ribozyme fitness (log ratio)” value was -0.279.

For G46A C85G A106C C125A, the “polymerase ribozyme fitness (log ratio)” value is at most -4.2.

As to C54U C63A C149U, the “polymerase ribozyme fitness (log ratio)” value was -1.67.

As for A60G G84A C118A, the “polymerase ribozyme fitness (log ratio)” value is -0.875.

For the variant G58C C87U, the “polymerase ribozyme fitness (log ratio)” value is -1.59.

Regarding G25C U56G G84A A89G U130C, the “polymerase ribozyme fitness (log ratio)” value was -2.97.

With C85U C125G, the “polymerase ribozyme fitness (log ratio)” value is -0.638.

With A16U C85U C87U A115G, the “polymerase ribozyme fitness (log ratio)” value was -3.52.

As for A20C A73C G81A U90C G92C U104G, the “polymerase ribozyme fitness (log ratio)” value was at most -4.2.

For U7G G48C G84A, the “polymerase ribozyme fitness (log ratio)” value was -3.94.

For A30U G94U, the “polymerase ribozyme fitness (log ratio)” value was at most -4.2.

U53G U90G G100A G124A U144C: the “polymerase ribozyme fitness (log ratio)” value is at most -4.2.

Consider U55G G80A, for which the “polymerase ribozyme fitness (log ratio)” value was -2.09.

C10G U53A C57U G86C A106G C108G A113G U127G: the “polymerase ribozyme fitness (log ratio)” value was at most -4.2.

With A20U A52U C76A C93A, the “polymerase ribozyme fitness (log ratio)” value was at most -4.2.

For the variant A40U A47C A66C C76U C93A A98G C99G U104C A150U, the “polymerase ribozyme fitness (log ratio)” value was at most -4.2.

With U9A A16G C54U C75U C76A A120U, the “polymerase ribozyme fitness (log ratio)” value was at most -4.2.

As to C5A U7C A22U C103G, the “polymerase ribozyme fitness (log ratio)” value was -2.38.

As for A60G G92A C96U A121C, the “polymerase ribozyme fitness (log ratio)” value was -2.75.

For the variant A24U, the “polymerase ribozyme fitness (log ratio)” value came to 0.541.

Regarding A3G U7G C38U A40G C54G C95U U145A, the “polymerase ribozyme fitness (log ratio)” value was at most -4.2.

Regarding A16G G42A A52G C95U C96A C99G, the “polymerase ribozyme fitness (log ratio)” value was at most -4.2.

On to A17U C87A A98G C132U G136A, for which the “polymerase ribozyme fitness (log ratio)” value is at most -4.2.

With C32U G88A U145G, the “polymerase ribozyme fitness (log ratio)” value is at most -4.2.

As for A3U G83A C118G A142C, the “polymerase ribozyme fitness (log ratio)” value is -3.66.

Take U61G C99G A138G: the “polymerase ribozyme fitness (log ratio)” value is at most -4.2.

For the variant A21U C38G C54U G92A G117U A121G, the “polymerase ribozyme fitness (log ratio)” value is at most -4.2.

With A28G G83C, the “polymerase ribozyme fitness (log ratio)” value was -4.1.

Consider U56A G58A G88C, for which the “polymerase ribozyme fitness (log ratio)” value was -3.84.

On to U4C U15G U77A G92U C99G, for which the “polymerase ribozyme fitness (log ratio)” value is at most -4.2.

As for A28U, the “polymerase ribozyme fitness (log ratio)” value was -3.38.

Turning to C14U G50C U56G C69U C118U, the “polymerase ribozyme fitness (log ratio)” value was at most -4.2.

Take U55A A60U G84U C116G A119U: the “polymerase ribozyme fitness (log ratio)” value is -2.63.

For C54A U55A C103G, the “polymerase ribozyme fitness (log ratio)” value was at most -4.2.

Turning to A30C C54U C96G G141A, the “polymerase ribozyme fitness (log ratio)” value was at most -4.2.

For C35A C79G U151A, the “polymerase ribozyme fitness (log ratio)” value is at most -4.2.

C14G A137U: the “polymerase ribozyme fitness (log ratio)” value is at most -4.2.

With A12G U55A U61G C125G, the “polymerase ribozyme fitness (log ratio)” value is -3.62.

For the variant C57U G58C A60U G88A C99A, the “polymerase ribozyme fitness (log ratio)” value is at most -4.2.

As to G83A C95U, the “polymerase ribozyme fitness (log ratio)” value is -0.657.

With G50C C87U C123A C125G, the “polymerase ribozyme fitness (log ratio)” value is -3.47.

As to A73G U77C G88C, the “polymerase ribozyme fitness (log ratio)” value is at most -4.2.

On to G46U C57G G70C U78G C87U G88U G143A U144A, for which the “polymerase ribozyme fitness (log ratio)” value is at most -4.2.

Turning to G11C C36U C57A G100A, the “polymerase ribozyme fitness (log ratio)” value was at most -4.2.

Take A91U A147G: the “polymerase ribozyme fitness (log ratio)” value is at most -4.2.

Consider C5U A19G C57U G84U G117U A120U, for which the “polymerase ribozyme fitness (log ratio)” value is -2.48.

Regarding A20U G83C G92A U127A G128U, the “polymerase ribozyme fitness (log ratio)” value was at most -4.2.

For A98G A121G, the “polymerase ribozyme fitness (log ratio)” value is -1.63.

As for G50A G86U, the “polymerase ribozyme fitness (log ratio)” value was -3.78.

Regarding G48A C57A G92A, the “polymerase ribozyme fitness (log ratio)” value is -3.32.

For the variant G86U A137G, the “polymerase ribozyme fitness (log ratio)” value is -3.03.

In the case of C10A G84U, the “polymerase ribozyme fitness (log ratio)” value was at most -4.2.

Take A16U A19U: the “polymerase ribozyme fitness (log ratio)” value is -2.39.

In the case of U53A G94A C125A U139C A142C, the “polymerase ribozyme fitness (log ratio)” value was at most -4.2.

In the case of C38U G83C, the “polymerase ribozyme fitness (log ratio)” value is -0.262.

For the origin of these results see the RNAGym collection of RNA variant scans (doi:10.1073/pnas.2313332121).
